# Measured values as given in IntAct's records for PubMed 15169888.
# B1: Nuclear factor NF-kappa-B p105 subunit (Homo sapiens), P19838-1 (parent)
# chain: MAEDDPYLGRPEQMFHLDPSLTHTIFNPEVFQPQMALPTDGPYLQILEQPKQRGFRFRYVCEGPSHGGLPGASSEKNKKSYPQVKICNYVGPAKVIVQLVTNGKNIHLHAHSLVGKHCEDGICTVTAGPKDMVVGFANLGILHVTKKKVFETLEARMTEACIRGYNPGLLVHPDLAYLQAEGGGDRQLGDREKELIRQAALQQTKEMDLSVVRLMFTAFLPDSTGSFTRRLEPVVSDAIYDSKAPNASNLKIVRMDRTAGCVTGGEEIYLLCDKVQKDDIQIRFYEEEENGGVWEGFGDFSPTDVHRQFAIVFKTPKYKDINITKPASVFVQLRRKSDLETSEPKPFLYYPEIKDKEEVQRKRQKLMPNFSDSFGGGSGAGAGGGGMFGSGGGGGGTGSTGPGYSFPHYGFPTYGGITFHPGTTKSNAGMKHGTMDTESKKDPEGCDKSDDKNTVNLFGKVIETTEQDQEPSEATVGNGEVTLTYATGTKEESAGVQDNLFLEKAMQLAKRHANALFDYAVTGDVKMLLAVQRHLTAVQDENGDSVLHLAIIHLHSQLVRDLLEVTSGLISDDIINMRNDLYQTPLHLAVITKQEDVVEDLLRAGADLSLLDRLGNSVLHLAAKEGHDKVLSILLKHKKAALLLDHPNGDGLNAIHLAMMSNSLPCLLLLVAAGADVNAQEQKSGRTALHLAVEHDNISLAGCLLLEGDAHVDSTTYDGTTPLHIAAGRGSTRLAALLKAAGADPLVENFEPLYDLDDSWENAGEDEGVVPGTTPLDMATSWQVFDILNGKPYEPEFTSDDLLAQGDMKQLAEDVKLQLYKLLEIPDPDKNWATLAQKLGLGILNNAFRLSPAPSKTLMDNYEVSGGTVRELVEALRQMGYTEAIEVIQAASSPVKTTSQAHSLPLSPASTRQQIDELRDSDSVCDSGVETSFRKLSFTESLTSGASLLTLNKMPHDYGQEGPLEGKI
# partner: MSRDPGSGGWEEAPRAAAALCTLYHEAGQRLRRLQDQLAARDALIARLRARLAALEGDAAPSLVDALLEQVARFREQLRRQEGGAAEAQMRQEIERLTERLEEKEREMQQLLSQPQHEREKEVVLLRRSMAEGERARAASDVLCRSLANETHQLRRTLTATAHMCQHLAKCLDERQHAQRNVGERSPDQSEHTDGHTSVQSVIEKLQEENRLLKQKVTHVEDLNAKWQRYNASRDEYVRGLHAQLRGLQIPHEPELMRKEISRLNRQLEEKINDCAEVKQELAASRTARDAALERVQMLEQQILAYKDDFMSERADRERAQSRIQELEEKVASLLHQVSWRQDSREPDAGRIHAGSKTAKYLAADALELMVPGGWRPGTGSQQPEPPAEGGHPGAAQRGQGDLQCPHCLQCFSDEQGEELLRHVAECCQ
# Variants of: B1
# Conditions: with tnip2_human TNIP2, Q8NFZ5
row,effect of a mutation on the interaction,Variant
1,disrupting interaction,L841A
